Experimental data: US20170283457A1 (YEDA RESEARCH AND DEVELOPMENT, published 2017)

B1: Importin7 (receptor, UniProt O95373 1-1038, looked up)
chain: MDPNTIIEALRGTMDPALREAAERQLNEAHKSLNFVSTLLQITMSEQLDLPVRQAGVIYLKNMITQYWPDRETAPGDISPYTIPEEDRHCIRENIVEAIIHSPELIRVQLTTCIHHIIKHDYPSRWTAIVDKIGFYLQSDNSACWLGILLCLYQLVKNYEYKKPEERSPLVAAMQHFLPVLKDRFIQLLSDQSDQSVLIQKQIFKIFYALVQYTLPLELINQQNLTEWIEILKTVVNRDVPNETLQVEEDDRPELPWWKCKKWALHILARLFERYGSPGNVSKEYNEFAEVFLKAFAVGVQQVLLKVLYQYKEKQYMAPRVLQQTLNYINQGVSHALTWKNLKPHIQGIIQDVIFPLMCYTDADEELWQEDPYEYIRMKFDVFEDFISPTTAAQTLLFTACSKRKEVLQKTMGFCYQILTEPNADPRKKDGALHMIGSLAEILLKKKIYKDQMEYMLQNHVFPLFSSELGYMRARACWVLHYFCEVKFKSDQNLQTALELTRRCLIDDREMPVKVEAAIALQVLISNQEKAKEYITPFIRPVMQALLHIIRETENDDLTNVIQKMICEYSEEVTPIAVEMTQHLAMTFNQVIQTGPDEEGSDDKAVTAMGILNTIDTLLSVVEDHKEITQQLEGICLQVIGTVLQQHVLEFYEEIFSLAHSLTCQQVSPQMWQLLPLVFEVFQQDGFDYFTDMMPLLHNYVTVDTDTLLSDTKYLEMIYSMCKKVLTGVAGEDAECHAAKLLEVIILQCKGRGIDQCIPLFVEAALERLTREVKTSELRTMCLQVAIAALYYNPHLLLNTLENLRFPNNVEPVTNHFITQWLNDVDCFLGLHDRKMCVLGLCALIDMEQIPQVLNQVSGQILPAFILLFNGLKRAYACHAEHENDSDDDDEAEDDDETEELGSDEDDIDEDGQEYLEILAKQAGEDGDDEDWEEDDAEETALEGYSTIIDDEDNPVDEYQIFKAIFQTIQNRNPVWYQALTHGLNEEQRKQLQDIATLADQRRAAHESKMIEKHGGYKFSAPVVPSSFNFGGPAPGMN
notes: Endogenous protein; also called Imp7; RANBP7
B2: GST-p38β (enzyme, UniProt Q15759 1-364, looked up)
chain: MSGPRAGFYRQELNKTVWEVPQRLQGLRPVGSGAYGSVCSAYDARLRQKVAVKKLSRPFQSLIHARRTYRELRLLKHLKHENVIGLLDVFTPATSIEDFSEVYLVTTLMGADLNNIVKCQALSDEHVQFLVYQLLRGLKYIHSAGIIHRDLKPSNVAVNEDCELRILDFGLARQADEEMTGYVATRWYRAPEIMLNWMHYNQTVDIWSVGCIMAELLQGKALFPGSDYIDQLKRIMEVVGTPSPEVLAKISSEHARTYIQSLPPMPQKDLSSIFRGANPLAIDLLGRMLVLDSDQRVSAAEALAHAYFSQYHDPEDEPEAEPYDESVEAKERTLEEWKELTYQEVLSFKPPEPPKPPGSLEIEQ
notes: Made in bacteria; also called GST-p38α/β; GST-MAPK; not shown: glutathione S-transferase tag of the pGEX-2T vector (GE healthcare)
B3: p38β-GFP (enzyme, UniProt Q15759 1-364, looked up)
chain: B2 chain
notes: Overexpressed in HeLa cells; also called wt-p38β; GFP-p38β; not shown: GFP of the pEGFP-C1 vector (Clontech)

Legend:
Importin9 [1] = biological target: T1, Importin9 (UniProt Q96P70 2-1041); experiment: PLA, resting HeLa cells
T1 construct: Endogenous protein; also called Imp9; IMB5
T1 sequence (Q96P70 2-1041 limits assumed): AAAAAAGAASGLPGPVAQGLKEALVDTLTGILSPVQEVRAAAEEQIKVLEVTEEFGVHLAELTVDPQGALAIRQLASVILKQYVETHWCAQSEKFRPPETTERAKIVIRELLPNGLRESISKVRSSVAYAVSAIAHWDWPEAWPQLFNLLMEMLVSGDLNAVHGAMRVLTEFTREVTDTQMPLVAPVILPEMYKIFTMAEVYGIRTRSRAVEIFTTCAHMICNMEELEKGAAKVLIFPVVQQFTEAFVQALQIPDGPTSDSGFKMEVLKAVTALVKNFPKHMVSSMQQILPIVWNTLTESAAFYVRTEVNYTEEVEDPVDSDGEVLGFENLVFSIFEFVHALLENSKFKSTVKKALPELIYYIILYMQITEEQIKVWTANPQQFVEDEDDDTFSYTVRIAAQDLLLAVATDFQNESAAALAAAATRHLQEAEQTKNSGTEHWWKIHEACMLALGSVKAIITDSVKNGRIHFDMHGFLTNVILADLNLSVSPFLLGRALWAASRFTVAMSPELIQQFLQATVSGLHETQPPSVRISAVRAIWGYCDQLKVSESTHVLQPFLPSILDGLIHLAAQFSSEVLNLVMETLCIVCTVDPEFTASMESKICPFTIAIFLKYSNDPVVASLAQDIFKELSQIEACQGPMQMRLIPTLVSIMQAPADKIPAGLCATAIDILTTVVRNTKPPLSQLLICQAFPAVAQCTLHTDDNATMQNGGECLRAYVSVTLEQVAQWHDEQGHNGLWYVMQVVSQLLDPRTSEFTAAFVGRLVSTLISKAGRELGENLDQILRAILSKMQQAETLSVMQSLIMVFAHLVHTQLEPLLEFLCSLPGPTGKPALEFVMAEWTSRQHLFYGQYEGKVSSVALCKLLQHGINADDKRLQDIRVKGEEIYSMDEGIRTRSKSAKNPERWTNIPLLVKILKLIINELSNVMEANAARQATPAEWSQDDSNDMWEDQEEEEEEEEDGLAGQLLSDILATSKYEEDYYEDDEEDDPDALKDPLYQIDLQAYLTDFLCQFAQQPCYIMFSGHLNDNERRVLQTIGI
Method: FIGS. 5A-5D illustrate that Imp3 interacts with Imp7/9-MAPK dimer in a phospho-dependent manner (A) Detecting heterodimerization of Imp3/7/9 using PLA. HeLa cells were grown on slides to 70% confluence, serum starved, and stimulated with Anisomycin (Anis, 0.5 μg/ml 15 min). Thereafter, the cells were fixed and subjected to a PLA, using the Abs indicated on top. The nuclei were detected using DAPI, and slides were visualized using a fluorescent microscope. (B) Quantification of the intensity of the signal was performed using ImageJ analysis tool. Data shown represents mean±S.E. The significance of stimulated vs NT was p<0.0005. (C) Detecting Imp3/7/9 interaction by CoIP. Serum-starved HeLa cells (0.1% FBS, 16 hrs) were treated with Anisomycin (Anis 0.5 μg/ml) or TPA (250 nM) for 15 min. Cell extracts were then subjected to a Co-IP with the Abs indicated on right. […] The beads were then washed with a washing buffer containing 150 mM NaCl, and interacting Imps were detected using Western blot analysis with the indicated Abs.
In order to examine this hypothesis, and establish a complex formation between endogenous Imp3/7/9, the present inventors monitored these possible interactions by PLA. No interaction between any of the examined Importins was detected in resting HeLa cells (FIGS. 5A, 5B). […]

Importin7 [2] = biological target: B1; experiment: in vitro interaction: GST-MAPK with Imp IPed from stimulated HeLa cells, Western blot
Method: (§1) FIGS. 3A-3B illustrate that JNK1/2 and p38α/β directly interact with either Imp7 or Imp9 but not with Imp3. (A) In vitro interaction of JNK1/2 and p38α/β with Imp3/7/9. Purified Imp3/7/9 were prepared by IP as follows: HeLa cells were grown to 70% confluence, serum starved, and then were either stimulated with Anisomycin (Anis 0.5 μg/ml, 15 min), TPA (250 nM, 15 min) or left untreated (NT). Imp3/7/9 were then IPed from the cell's extracts and extensively washed, twice with RIPA buffer and once with 0.5M LiCl. The indicated GST-MAPKs were prepared from bacteria as described under Materials and methods. To examine association, 500 ng of each GST-MAPK were incubated with 20 μl of the indicated IPed Imps in PBS (2 hrs, 4° C., with rotation). The beads were then washed with washing buffer containing 150 mM NaCl, and interacting MAPKs were detected using Western blot analysis with the indicated Abs. (B) Imp3 is not required for Imp7/9 interactions with JNK1/2 and p38α/β. HeLa cells were treated with Si RNAs of Imp3 according to the manufacturer instructions. […] Cell extracts were then subjected to Co-IP with anti Imp7 or Imp9, the interacting MAPKs were detected by Western blot with the indicated Abs. Amount of IPed Imps was detected by the indicated Abs.

Importin9 [3] = biological target: T1, Importin9; experiment: as above
Method: as §1

Importin7 [4] = biological target: B1; experiment: Co-IP with anti GFP Abs, transfected HeLa cells
Method: (§2) FIGS. 10A-10B illustrate that endogenous and overexpressed JNK1/2 and p38α/β CoIP with Imp3, 7 and 9. (A) A Co-IP screen to detect the importins interacting with JNK1/2 and p38α/β in MCF7 cells. MCF7 cells were grown on slides to 70% confluence, serums starved and then were either stimulated with Anisomycin (Anis 0.5 μg/ml, 15 min), TPA (250 nM, 15 min) or left untreated (NT). Cells extracts were then subjected to Co-IP with anti JNK1, JNK2, p38α, or p38β, and rabbit IgG as a negative control (Control). The interacting Imps or the IPed MAPKs were detected by Western blot with the indicated Imps or MAPK Abs. (B) Interaction of overexpressed MAPKs in HeLa cells. HeLa cells were transfected with either JNK2-GFP (wt-JNK2), p38ββ-GFP (wt-p38β) or GFP alone. Cells were serum starved, and then treated with Anisomycin (Anis 0.5 μg/ml, 15 min), TPA (250 nM, 15 min). Cells extracts were then subjected to a CoIP with anti GFP Abs. The interacting Imps and the loading extracts were detected using Western blot analysis with the indicated (left) Abs. The blots were developed with either NBT/BCIP or ECL. Arrows indicate interacting Imps.

Importin9 [5] = biological target: T1, Importin9; experiment: Co-IP with anti GFP Abs, transfected HeLa cells
Method: as §2

## B1
Importin9 [1]
  binding result: no binding

## B2
Importin7 [2]
  binding result: binds
Importin9 [3]
  binding result: binds

## B3
Importin7 [4]
  binding result: binds
Importin9 [5]
  binding result: binds
